Literature values as cited in paper PMC4681696.

Target: p75NTR (Homo sapiens) (UniProt P08138)
UniProt P08138, sequence (P08138 29-250): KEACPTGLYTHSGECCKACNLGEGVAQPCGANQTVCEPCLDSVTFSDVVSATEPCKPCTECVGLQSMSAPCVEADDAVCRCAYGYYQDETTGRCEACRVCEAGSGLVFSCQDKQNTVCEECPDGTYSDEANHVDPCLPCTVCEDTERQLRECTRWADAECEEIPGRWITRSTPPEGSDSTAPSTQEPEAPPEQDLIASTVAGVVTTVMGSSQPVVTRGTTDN

Q: With NGF (from UniProt P01138) as the substance, how does the Kd read?
A: 7 nM
